Assay results: the supplement of paper PMC9112550, “Optimization of the antimicrobial peptide Bac7 by deep mutational scanning” (BMC Biology, 2022)

The sequences below were run on Escherichia coli TOP10 (assay: shrunken log2 fold change of peptide-encoding DNA abundance (4.5 h post-induction vs induction); higher = less antimicrobial activity (less host growth inhibition)). Conditions: time post-induction: 4.5 h; library: site-saturation at positions 5, 18, 19, 20.
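Further: peptides expressed intracellularly from a pBAD plasmid library in pooled LB shake-flask culture, induced with 0.3% L-arabinose, DNA abundance read by NGS, three biological replicates, DESeq2 with apeglm shrinkage.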

Going from RRIRHRPPRLPRPRPRPPWAPRP to RRIRLRPPRLPRPRPRPLWLPRP, the “shrunken log2 fold change” value falls from 0.226 to -0.0303.

Going from RRIRERPPRLPRPRPRPTDLPRP to RRIRRRPPRLPRPRPRPTQMPRP, the “shrunken log2 fold change” value rises from 0.15 to 0.694.

First: RRIRTRPPRLPRPRPRPRHNPRP
Second: RRIRLRPPRLPRPRPRPTPGPRP
The “shrunken log2 fold change” value of the first is lower: -0.293 for the first, 0.557 for the second.

First: RRIRVRPPRLPRPRPRPFLMPRP
Second: RRIRIRPPRLPRPRPRPKHKPRP
The “shrunken log2 fold change” value of the first is higher: -0.208 for the first, -0.508 for the second.

RRIRWRPPRLPRPRPRPYDEPRP and RRIRDRPPRLPRPRPRPANFPRP are within 0.2 log units of each other in “shrunken log2 fold change” value: -0.114 for the first, 0.0245 for the second.

Going from RRIRGRPPRLPRPRPRPISCPRP to RRIRDRPPRLPRPRPRPLTQPRP, the “shrunken log2 fold change” value falls from 0.279 to 0.0757.

Compared with RRIRCRPPRLPRPRPRPDVRPRP, RRIRRRPPRLPRPRPRPKADPRP is higher in “shrunken log2 fold change” value: -0.0317 for the first, 0.198 for the second.

Compared with RRIRSRPPRLPRPRPRPSNEPRP, RRIRFRPPRLPRPRPRPNMFPRP is higher in “shrunken log2 fold change” value: -0.476 for the first, -0.259 for the second.

Going from RRIRQRPPRLPRPRPRPRQIPRP to RRIRPRPPRLPRPRPRPVYCPRP, the “shrunken log2 fold change” value falls from 0.0413 to -0.375.

RRIRKRPPRLPRPRPRPWSCPRP and RRIRCRPPRLPRPRPRPEKDPRP are within 0.2 log units of each other in “shrunken log2 fold change” value: -0.22 for the first, -0.0681 for the second.

First: RRIRHRPPRLPRPRPRPENRPRP
Second: RRIRWRPPRLPRPRPRPGVAPRP
The “shrunken log2 fold change” value of the first is lower: 0.019 for the first, 0.821 for the second.

RRIRSRPPRLPRPRPRPPGLPRP and RRIRARPPRLPRPRPRPHDWPRP are within 0.2 log units of each other in “shrunken log2 fold change” value: 0.348 for the first, 0.295 for the second.

First: RRIRYRPPRLPRPRPRPHIHPRP
Second: RRIRFRPPRLPRPRPRPKITPRP
The “shrunken log2 fold change” value of the first is lower: -0.745 for the first, -0.448 for the second.

First: RRIRRRPPRLPRPRPRPCDGPRP
Second: RRIRNRPPRLPRPRPRPHADPRP
The “shrunken log2 fold change” value of the first is higher: 0.0965 for the first, -0.315 for the second.

Going from RRIRKRPPRLPRPRPRPATQPRP to RRIRKRPPRLPRPRPRPVRYPRP, the “shrunken log2 fold change” value falls from 0.958 to 0.152.

First: RRIRMRPPRLPRPRPRPNRRPRP
Second: RRIRERPPRLPRPRPRPATYPRP
The “shrunken log2 fold change” value of the first is higher: 0.179 for the first, -0.275 for the second.

Compared with RRIRIRPPRLPRPRPRPRCFPRP, RRIRVRPPRLPRPRPRPFNFPRP is lower in “shrunken log2 fold change” value: -0.141 for the first, -1.01 for the second.

Going from RRIRLRPPRLPRPRPRPCSRPRP to RRIRVRPPRLPRPRPRPFKRPRP, the “shrunken log2 fold change” value falls from 0.06 to -0.165.

RRIRKRPPRLPRPRPRPRHGPRP and RRIRNRPPRLPRPRPRPGTCPRP are within 0.2 log units of each other in “shrunken log2 fold change” value: -0.0248 for the first, -0.0314 for the second.

RRIRIRPPRLPRPRPRPLGWPRP and RRIRARPPRLPRPRPRPKDCPRP are within 0.2 log units of each other in “shrunken log2 fold change” value: 0.339 for the first, 0.181 for the second.

Compared with RRIRVRPPRLPRPRPRPMKSPRP, RRIRKRPPRLPRPRPRPMYGPRP is lower in “shrunken log2 fold change” value: 3.02 for the first, 0.00748 for the second.

Going from RRIRERPPRLPRPRPRPNHRPRP to RRIRGRPPRLPRPRPRPVLRPRP, the “shrunken log2 fold change” value rises from -0.101 to 0.656.

First: RRIRYRPPRLPRPRPRPCWDPRP
Second: RRIRPRPPRLPRPRPRPTVGPRP
The “shrunken log2 fold change” value of the first is lower: -0.0738 for the first, 0.555 for the second.

Compared with RRIRTRPPRLPRPRPRPNPNPRP, RRIRGRPPRLPRPRPRPMTGPRP is higher in “shrunken log2 fold change” value: -0.306 for the first, 0.427 for the second.

Going from RRIRQRPPRLPRPRPRPHDAPRP to RRIRQRPPRLPRPRPRPKNTPRP, the “shrunken log2 fold change” value falls from -0.0149 to -0.394.

RRIRRRPPRLPRPRPRPHRHPRP and RRIRQRPPRLPRPRPRPSPVPRP are within 0.2 log units of each other in “shrunken log2 fold change” value: 0.0704 for the first, 0.0734 for the second.

RRIRSRPPRLPRPRPRPGIEPRP and RRIRYRPPRLPRPRPRPFQIPRP are within 0.2 log units of each other in “shrunken log2 fold change” value: 0.158 for the first, -0.0359 for the second.

First: RRIRIRPPRLPRPRPRPQAVPRP
Second: RRIRPRPPRLPRPRPRPTCHPRP
The “shrunken log2 fold change” value of the first is lower: -0.0119 for the first, 1.02 for the second.

RRIRCRPPRLPRPRPRPENPPRP and RRIRYRPPRLPRPRPRPIRFPRP are within 0.2 log units of each other in “shrunken log2 fold change” value: -0.0628 for the first, -0.0383 for the second.

RRIRPRPPRLPRPRPRPMPIPRP and RRIRMRPPRLPRPRPRPMFEPRP are within 0.2 log units of each other in “shrunken log2 fold change” value: 0.0579 for the first, 0.155 for the second.

Going from RRIRIRPPRLPRPRPRPPQPPRP to RRIRDRPPRLPRPRPRPRWQPRP, the “shrunken log2 fold change” value falls from 0.343 to 0.0899.

RRIRPRPPRLPRPRPRPSHRPRP and RRIRLRPPRLPRPRPRPPGHPRP are within 0.2 log units of each other in “shrunken log2 fold change” value: 0.0628 for the first, 0.224 for the second.

RRIRERPPRLPRPRPRPTTRPRP and RRIRERPPRLPRPRPRPSPIPRP are within 0.2 log units of each other in “shrunken log2 fold change” value: 0.0679 for the first, -0.122 for the second.

RRIRQRPPRLPRPRPRPFKRPRP and RRIRMRPPRLPRPRPRPNWEPRP are within 0.2 log units of each other in “shrunken log2 fold change” value: 0.0391 for the first, 0.0757 for the second.

Going from RRIRDRPPRLPRPRPRPTMEPRP to RRIRNRPPRLPRPRPRPMATPRP, the “shrunken log2 fold change” value falls from 0.335 to -0.0123.

RRIRHRPPRLPRPRPRPEPCPRP and RRIRVRPPRLPRPRPRPTKTPRP are within 0.2 log units of each other in “shrunken log2 fold change” value: 0.0696 for the first, 0.0337 for the second.

Going from RRIRSRPPRLPRPRPRPFLYPRP to RRIRSRPPRLPRPRPRPQMQPRP, the “shrunken log2 fold change” value rises from -0.442 to 0.00783.

In the case of RRIRCRPPRLPRPRPRPPVLPRP, the “shrunken log2 fold change” value is reported as -0.169.
